Assay: soluble on expression in E. coli; label from the status in PepcDB or PDB records

Soluble on expression in E. coli, not soluble:
MGSDKIHHHHHHMPIAIYQGHHHSLAPADINIVIDVIRAFTVAHYAFIGGAKEILLVRTADEAFALKDTYPDYVLTGEEKGVGISGFDLDNSPKRMAGQNMTDKSLIQKTTNGVTAALGALNAKHLFVTGFSNAKTTAQHVKKLVANDCVINIVASHPSGDDDMACAEYIKGIIEGTNVVTAAEAIERIKGSSVAEKFFDCRQPLFDSEDIVYCTKELTGDFVMKVKQDGEVPTIERVII
MGSDKIHHHHHHMPKMGELTLTSVDEFDFRLLIKALGKGEKGSRALTFDEACLLLEGFAKGKATRAQMASAMMLMRVRGETTEEISGMVAGLRRTVDKDWHSLEVDIDWPVYAGKREQLPWLLLVAKLLAKQGVRVMLHGDSQALPHRRHVESCLASLNIACCTTPQMAKAALHSDNIVYVCAGDLAPVLDECRQLHQELGLRSLIQTAARCMNPTNAPISLRSYFHPGLDTVHQGICEILFEKSEYHAGSVAIFKGLQGETECNPRVATTITVVNGQTDNIAVSSLSIPTLLEGFSGAKVGQAELSSDILALLWREQEPFSADALTTLMSRTMIEQALSSMTATLAAVLLLLSRKSAMTEPNTTAIITTEQAVNLSQQCWTNRFNSTDCPLKQWRNRELLCAV
MGSDKIHHHHHHMPLPENSVVEKNILNPEAVAEALERAMNLANPQTTHAAIAVPTSTVIHKTIEMDADMSDDEREVQIRVDAEQYIPFPLDEVSLDFEVLPDRLANPNRVNVLLVATRTENVETRVEVLELADLNPKLADVESYAVERAFSVFADSLPMGANTIGILDIGHTMTTLSVMQNGKIIYTREQVFGGKQLTLEIQSRYGLSLEEASRAKKDRSLPDDYEIEVLDPFLDAVVQQAARSLQFFFSSSQFNEIDHILLAGGNANIPGLAKLLQQKLGYRVTIANPFLQMGFSPQVDVQKIENDASSLMVACGLALRSFD
MGSDKIHHHHHHMPNQAWSYQMLHLDLAWLNQLYSEFQEQGLDLHIPQHKPLIIKDEFLYDAFTEMNETLFDAQKLIFEKEQSLLHCLIHLLLPHFILEEIQKPQYLYKDFLNLIDVISSSEGFISLEELAQRVGLSRYAIIRLFKANVGLTPHAFQINLKINQAREQLKKGVPLAELAVNLGFSDQSHFHKAFKAHTGVTPRQFQLAAAQ
MGSDKIHHHHHHMPSIFEKYHLKQVINTSGRMTALGVSTPRPEVVEAAMAGMNQYFEMKDLVNKTGEYIAKLLDVEGATVVSCASAGIAQSVAAVLVKDSDWLLENLHVTPIENNEIVLPKGHNVNFGAPVGTMVALGGGKLVEAGYANECSAQQLAAAITPRTAAILYIKSHHCVQKSMLNVAQAAEVARQHNVPLIVDAAAEEDLQCYYRMGADLVIYSGAKAIEGPTSGLVIGKTQYVEWVKRQSMGIGRAMKVGKEGILGLTCAIEHYLTASKESGQQMVAKMTPFIEQLNTLNGVTARVVWDSAGRDIARAEIKFDEATTGVKTGDLVNALKQGEYAIYFRGYKANEGIIEADVRSVNAQQLEVVARRIAEVLNKEKQA
MGSDKIHHHHHHMPSSTTLQHAIENITIWRKGEQRAPHKPLLLLYVLSQYQRGHARMFDYASEIRDELHSLLERFGPQRRQYRPDMPFWRLKGDGFWELHNSDQCSTQGSRQPPGKELELCHVAGGFDEPHFALLNRNKRLINTLAHQILEAHFPESIQEELAEEMGFDLQQIRKERDPHFRQQVLRAYNYECAICGFNMRHDNTSVALEAAHIKWKQHGGPCEIPNGLALCAIHHKAFDKGSIGLDEDMRIQVSPAVNGGGIVGRLFWDFDGKPITLPQGKECYPQEGFVAWHRREVFRG
MGSDKIHHHHHHMPTRVIEDKGDMTPSFGIDDRIFLGEGLFETIRVNSSKPSFAYMHWERLGNSARQLGIPFEISFDDWFEHLIQKIQKDNLYHGGIKAILSGGPASRGLAERGQVSQLIFQTFNYSIQKHPVRLISINWLRDKANPLYQLKSVNYLEAIIAQRQAIAVGADDALFFNTENHVTETTCANLFLIENNILYTPRVEDGILPGITRARLISHCQQHKMSVQEISLTKKRIEDADAVFLTNSLQGIRRVLSLDNIIFEVNHPIIDKLIFLLNQDES
MGSDKIHHHHHHMPVDWPLRFPQLSGGASRPHSSLASTCVGGLQELMQSCYPPRGGCWIAAVLEDAGVERVCGLLGKGHAGVVLLVEWRGVAAALKVRRRDSRRGSLEPEARVAEKAALAGAAPEVYGYGEEFIAMAPALGPSLQDLAEEGLLTPQHILASIEAAWALDNAGILHGELHRPWRNVLFNPRKALIIDYDSASSGCGNVVKLVSGISRRVPSLLGLVRSERFRDLAKRYYREGCGKATYMEMLDEVKKHISVI
MGSDKIHHHHHHMPVLPVSSYKGSGPLANGHVQTMFPVLFRPMPVVEYHRQRLETPDGDFLDVDFSSAAAAAQSESIAVISHGLEGHSRRRYVQGMARVLNARGWDAAAWNFRGCSGQPNRLPRMYHSGDTQDLHTVVTACAQKGYRRILLVGVSMGGNQILKYLGEDPDRVDSRVCGAVVFSVPCDLVGAAQVLGRPQNSVYMRYFLRTLRQKIKAKHAMYPDTIQMDGLDSIRTFAEFDDRYTAPLHGFSGALDYWTKSSCRQFLSSVRVPALLVNALNDPFLSASCYPYREARQSGSLFFETTVTGGHVGFVQFNRQNIYWSEERLLSFMDEQGL
MGSDKIHHHHHHMQFGAKPLFENISVKFGGGNRYGLIGANGCGKSTFMKILTGDLEPSSGNVSLDVNERMGKLNQDQFAYEKFSVVDTVIMGHRELWKVKQERDRIYSLPEMTEEDGIKVSELEMEFAEMDGYTAESRAGDLLLGVGIGTEQHFGLMSQIAPGFKLRVLLAQALFSDPDLLLLDEPTNNLDIDTIRWLQDMLNQRNSTMVIISHDRYFLNSVCTHMADLDYGELRVYPGNYDEYMMAATQARERLQSDNAKKKAQIAELQTFVARFSANASKAKQATSRAKQIDKIKLDDIKASSRVNPFIRFEQEKKLFRNALIVENLAKGYDKPLFSNLNLMVEVGERIAILGENGVGKTTLMRTLVHDIPQDEGTIQWSENANIGYYAQDHEADFANDMTLFDWMSQWRKPEDDDQSVRAILGRMLFGSDDIKKSVTVLSGGEKGRMYFGKLIMQKANILMLDEPTNHMDMESIESLNNALEMYEGTLMFVSHDRAFVSSLATRILEVTANGVNDFKGTYDEFLRSKGIDA
MGSDKIHHHHHHMQFTINHRTHYLYTDVVNYTIQKLRLTPQDGFGQRVKRWEIRVNGHLQRHDDAYGNAEHLLVLDTPHEEINILATGEVETGLDTPPAHDLLPREIYLRTTALTATDATLRNFAEQFRYDRFTGQILDEMMHAIVDKVPYYRGVTNVNTPAAEAFRSGHGVCQDHAHIFIACCRYLGIPARYVSGYLFTDDGSLMESHAWADACLPSGWISFDVSNRCRTNGVHVRLATGLDYSDACPVSGMRVGGGLETMTVGVHVSQLQSQQ
MGSDKIHHHHHHMQGLGLIVCRQGSFQFSLDNKCASAKAGETLFIHEESWVQVLQETEDVEILILAYQIEPIRDIIGNSVVSMYMYSKLTPELSCVWNTGEEDEIMKYMSLIDSVLEMEESVFSLYEQKLLLLALTYRICSVYNRKLISAGQETGGRKNEIFVRLIQLIEQYYMQERSVEFYADKLCLSPKYLSALSKSICGYTVQELVFKAIIRKCISLLKNTQKNIQEISNEFGFPNASYFGTFFKKQMGMSPQQYRRNL
MGSDKIHHHHHHMQHIIKTALQQTFNYKTNKSIYNILVGKKSHQTFFDACSQQQLSLYHSLPLLKYPSFELFLEKINEFNAEMEIMLHPRYTFESMGQTFQAIQLLVQTMSNTKQHVFHFVPISQNNKIQETVKIVYNYIKENQLQIDFENELHNLFKAITLKGPCYLHYYLQGYDEPMYTRQQVSLIEKLSQQQLFEYEMNNLVTMMFELESGEYTILSKIIMKPTLLNQTYITYTKLLEQFTMEDIAAQQQVKINTIEDHVLEILIKGYMSNYDDYVELEDQLQFLNFYQQHRGERLKFYKEQFDTLSYFQLKVLIVGFERGDLNVA
MGSDKIHHHHHHMQIEFYRRKYGRGCRPHLSLCIEGQHYHVDTSPADYGMNLITHAHTDHYGQRNMDNSRAVASRESAAILEACTGKVFSGVTFEVGSRIRLSDTKIKTYPTYHMHGSAAFYFQDSDILITGDVKDYSKLPKCKILVTEATYGHPSHIFEEEVEKLLKVASSNKAVFGAYPIGKAQRVAEILSKDGFGFSAEEKIARICSAVGLKPSDGPLIASPRNLPLYGGGYILTAHKFYRWPRITLSDHLDYRGILEMIDHCEPEEVLFYHGKPSKRLLEHLKNEGIVCRTLNDLPVMK
MGSDKIHHHHHHMQKLASGEQLMKVNGDTVATQGQLAKLLPLQHIDPQSTDIIDHGAKPRRQLLDWLMFHVEPEFYFAWQYYSRALKQRNTLLKTRRNLSLADLEPWNKMLSDYGEILHSQRLSIVEQWNVYFQNDLSQLLPDLEIELEYSPGFHTEQGLMQDLLNQHQKDIERRYTEYGPHRADLRLKTPFGHADDVLSRGQKKLLIIALKLSQIAMLHASNKETVVLLDDLTAELDLTAQQRLIERLSQLGSQVFMTTLDHASVKKHLHDLSISYQLFSVESGQVSLAAS
MGSDKIHHHHHHMQLKQSIYFHSPIFLQNILTTIYGRVLYQERYGPVYQKRLQELKEKERFQTNAQAEQLARLNQFLLFCQTYSPYYQELFEQHRITLPLETLDELKQIPILSKEILRTRNADVHAKIRAPILGKTGGTTGKSIQVHYTKEDMQIRMAHLDYFKWTHGIERGMRRASFTGQTLAAESQKAPVYWRMNKAINQMLFTIKNINPQTAALYIEQLNRFNPESIDGLPSGMIEVARHAKKYNIPCTFRPKAIFPTAEMMTAAERQLIEEVFHAPIFDQYASSEGAPIVAECRYGKKHLHYEMGIIEVEEDGQILVTSFDTHGTPLVRYRVGDRMTLSEATCQCGHAGPVIASIDGRGRSFIQLKDGHRIFEGELAGIVRAFPNCIERVQYIQSDKEEIVMLYVPDERCFKEEHEKELYFVLKRLFGGQMEVLLRAVPEIPKEISGKTLLIKQLLLEKS
MGSDKIHHHHHHMQLTVWTYEGPPHVGAMRVATGMEGLHYVLHAPQGDTYADLLFTMIERRDRRPPVTYTTFAARDLGKDTAELFKTAAQNAYDRFKPQAMIVGASCTGSLIQDDPGGLAKALALPIPVVAIDLPAYQRKENWGAAETFYQLVRAIAGPKAPPPGSKRPERPAGKRPSCNLLGPTALGFRHRDDIIELTTLLGKLGIDVNVTAPMGATPADLARLGEADFNVVMYPETASQAASWLHRMFHQPFTKIVPIGVSATREFIEEVAKLADVDPTAVLKSYSSRLPWYSHSVDSTYLTGKRVFIFGDATHVVAAARMASDEMGFKVVGLGTYSREFGREIREAAKLYDVEPLITDDYLEVEAKVAELHPELVLGTQMERHIAKRLGVPCAVISAPVHVQDFPARYAPQMGFEGANVIFDTWVHPLMMGLEEHLLTMFRDDFEFKDGATPSHLGVGHAPAPAPAVADSAAVEVLDATTATTTETTTAVWAADAEKELRKIPFFVRGKARRNTERFANENGVATITVETLYDAKAHFSR
MGSDKIHHHHHHMQNGYYQATGGMVTQFNKLDVITNNLANINTSGYKRDDVVIADFKRIFKETQDELPIENHTRDASRFVNTTIDGIPQVSQEYTDFSLGSLKATNNPLDLAMTREDAFYLVQTKDGEVRLTKDGNFQLDDEGYLVNKQGYKVLSSDYFNNPQNAGIRIPNGAVQISVDKNGSIEVDGAQNARLFVAQVDDIRALQKDGDNVYKIDDLTRIRDLKNSNAIRQGFSQGSNVNPVTEMVGLIEANRMVEMYQKVMTAHMDDLNQEAINKLAAVK

From the DeepSol protein solubility set
